1 substance from doi:10.1101/2021.03.10.433854 can be followed below.

Holding throughout (assay): SPR
For orientation: In SPR one partner is held on a chip, and binding of the other changes the refractive index at the surface.

Assay [1] has as its target catalytic domain of human AURKA (amino acids 122-430) (human).
Assay [2] has the same target. This is another data set of the same source.
Assay [3] has the same target. The source holds these as a separate data set.

pKd: −log10 of the molar value. “And” between values parts separate entries of the source, which are not always exact repeats. Equal entries are not always repeated. Where two headings read alike, the source gives them in different places.

For the substance “AURKA interacting region (AIR) of N-Myc (N-Myc residues 61-89) (from UniProt P04198 61-89) (peptide)”, the pKd in assay [1] was 6.00; in assay [2] it was 6.16 and 5.40; in assay [3], less than 4.82. The koff in assay [1] amounted to 0.0659 s⁻¹. The kon in assay [1] was determined as 63000 M⁻¹ s⁻¹.

One may read the pKd as the Kd on a negative log10 scale, so that one unit is a factor of ten. The koff is the first-order rate constant of dissociation. In general, kon refers to a measure of how fast the partners come together. Low readings indicate slower complex formation, high ones faster complex formation.
